Laboratory results from patent publication US20250092146A1, “ANTI-CCR8 ANTIBODIES, CONJUGATES, AND USES THEREOF” (Abilita Bio, Inc., priority 2023, published 2025).
Substitutions are numbered along the chain they refer to.

B1: VHH-1.2: humanized VHH-1, version 2, SEQ ID NO: 107 (protein)
VHH: EVQLVESGGGLVQPGGSLRLSCAASGSTSSIRRIGWYRQAPGKGLEWVARFSSGGGTNYADSVKGRFTISGDNSKNTMYLQMNSLRAEDTAVYYCSARRLLGTSRVDYWGQGTTVTVSS
B2: VHH-1.1: humanized VHH-1, version 1, SEQ ID NO: 106 (protein)
VHH: B1 VHH with Y37V, A49S, G71R, M78L, S96A, A97K
B3: VHH-1.3: humanized VHH-1, version 3, SEQ ID NO: 108; Table 13 tested as Fc fusion (protein)
VHH: B1 VHH with L45R, W47L
B4: VHH-2: llama anti-hCCR8 VHH, SEQ ID NO: 28; in Tables 12 and 13 tested as human IgG1 Fc fusion (protein)
VHH: QVQLQESGGGLVQAGGSLRLTCAVSGSTSTINRFAWYRQAPGKQRELVAATSSRTSPNYADSVKGRFRFSRDNARSAVYLQMDNLRPEDTAVYFCQARMAMGSSQVVYWGLGTQVTVSS
B5: VHH-1-mFc: VHH-1 fused to hinge of mouse IgG2a Fc, SEQ ID NO: 239 (protein)
chain: QVQLQESGGGLVQAGGSLRLSCVASGSTSSIRRIGWYRQAPGKQRELVARFSSGGGTNYADFVKGRFTISGDNAKNTMYLQMNSLKPEDTAVYYCSARRLLGTSRVDYWGQGTQVTVSSEPRGPTIKPCPPCKCPAPNLLGGPSVFIFPPKIKDVLMISLSPIVTCVVVDVSEDDPDVQISWFVNNVEVHTAQTQTHREDYNSTLRVVSALPIQHQDWMSGKEFKCKVNNKDLPAPIERTISKPKGSVRAPQVYVLPPPEEEMTKKQVTLTCMVTDFMPEDIYVEWTNNGKTELNYKNTEPVLDSDGSYFMYSKLRVEKKNWVERNSYSCSVVHEGLHNHHTTKSFSRTPGK
B6: VHH-3: llama anti-hCCR8 VHH, SEQ ID NO: 29 (protein)
VHH: QVQLQESGGGLVQAGGSLRLSCVASGSTSSIRRIGWYRQAPGKQRELVARFSSGGGTNYADFVKGRFTISGDNAKNTMYLQMNSLKPEDTAVYYCGARRLLGTSRVDYWGQGTQVTVSS
B7: VHH-2.2: humanized VHH-2, version 2, SEQ ID NO: 110 (protein)
VHH: EVQLVESGGGLVQPGGSLRLSCAVSGSTSTINRFAWYRQAPGKGLEWVAATSSRTSPNYADSVKGRFTFSRDNSKNTVYLQMNSLRAEDTAVYYCQARMAMGSSQVVYWGQGTTVTVSS
B8: VHH-2.3: humanized VHH-2, version 3, SEQ ID NO: 111; Table 13 tested as Fc fusion (protein)
VHH: B7 VHH with L45R, W47L
B9: VHH-2.1: humanized VHH-2, version 1, SEQ ID NO: 109 (protein)
VHH: B7 VHH with V24A, Y37V, A49S, F69I, V78L, Q96A, A97K

How the values were obtained:
hCCR8 [1] = target: T1, hCCR8 (Homo sapiens, UniProt P51685); experiment: Flow cytometry binding of VHH-Fc fusion antibodies to hCCR8 on stably transfected HEK293 cells; conditions: for binding to hCCR8 expressed on HEK293 cells (in words): as Fc fusion antibodies
T1 construct: expressed in transfected cells
T1 sequence (P51685 whole entry, the tested form may be a part): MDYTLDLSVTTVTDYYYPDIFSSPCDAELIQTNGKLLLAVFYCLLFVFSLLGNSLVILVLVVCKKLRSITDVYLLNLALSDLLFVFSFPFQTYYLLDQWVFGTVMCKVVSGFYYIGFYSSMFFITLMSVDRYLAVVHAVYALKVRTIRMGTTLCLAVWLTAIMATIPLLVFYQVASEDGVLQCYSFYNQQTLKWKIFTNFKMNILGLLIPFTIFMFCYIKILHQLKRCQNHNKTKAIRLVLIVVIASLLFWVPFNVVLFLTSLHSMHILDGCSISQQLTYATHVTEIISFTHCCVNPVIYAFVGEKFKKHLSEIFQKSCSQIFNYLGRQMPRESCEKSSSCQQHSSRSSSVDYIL
Experimental: VHH-Fc fusion antibodies were evaluated for their ability to bind to hCCR8 on stably transfected HEK293 cells by means of flow cytometry. Cells were incubated with different concentrations of the bivalent VHH-Fc fusions for 60 minutes at 4° C., followed by two washes with FACS buffer, followed by 30 minutes incubation at 4° C. with the Zenon R-Phycoerythrin Anti-human IgG (ThermoFisher Scientific, #Z-25455), and two additional washing steps. Data were plotted and fit using GraphPad Prism software. EC50 and Bmax values individual antibodies were calculated from the resulting dose-response curves. Bivalent VHH-Fc fusions (Seq ID NOs: 31, 33, and 87-103) of 19 different VHH domains (SEQ ID NOs: 27, 28, and 70-86) were tested for cell binding and results are shown in Table 7. […]
(§1) VHH-Fc fusion DNA constructs were then generated comprising encoding humanized VHH sequences (SEQ ID NOs: 106-111) fused in frame to the human IgG1 (SEQ ID NO: 34) directly to the short hinge sequence in the pFuse expression vector, and were expressed, purified and analyzed for binding to HEK293 cells expressing human CCR8 as in Example 5. Binding curves for VHH-Fc antibodies comprised of parental VHH-1 and the humanized VHH derivatives VHH-1.2-Fc and VHH-1.3-Fc are shown in FIG. 9A. Binding curves for VHH-Fc antibodies comprised of parental VHH-2 and the humanized VHH derivatives VHH-2-Fc, VHH-2.2-Fc and VHH-2.3-Fc, are shown in FIG. 9B. Cell binding EC50 values, normalized Bmax (relative to respective parental clone) data and humanizing mutations are shown in Table 10 below.
Approaches such as in vitro affinity maturation and rational mutagenesis can be performed to regain binding affinity and/or stability lost through humanization. In vitro affinity maturation generally involves building and amino acid substitution library where amino acid positions are varied across the CDRs and/or framework at a defined set of positions using sets of amino acids chosen to introduce new chemical diversity. The paratope residues within the CDR regions are of course key to antigen binding and care must be taken not to disrupt important structures while attempting to evolve improve antibody behavior. One approach to identify positions that are important to the maintenance of binding properties is to perform paratope mapping using single scanning alanine substitutions across antibody CDR regions. In this approach, residues that are critical to the maintenance of antibody binding to the antigen can be identified and at the same time permissive sites can be identified where it may be possible to make substitutions of other amino acids desirable for subsequent affinity maturation library construction. Site directed mutagenesis was used to make single alanine substitutions at each residue in the CDRs of VHH-1 (SEQ ID NO: 27) and VHH-2 (SEQ ID NO: 28). Changes in VHH-1 CDR amino acids to alanine are indicated in Table 11 (SEQ ID NOs: 112-137) and for VHH-2 CDRs (SEQ ID NO: 138-162) in Table 12. Mutation positions and residue changes to alanine with respect to the in the parental VHH sequences are referenced by their IMGT position. VHH domains containing the indicated modified CDR-1, CDR-2 or CDR-3 domains were used to construct Fc fusions by direct grafting to the short hinge of the human Fc domain (SEQ ID NO: 34). VHH-Fc constructs were expressed, purified and analyzed for binding to HEK293 cells expressing hCCR8 and the results are reported in Table 11 and Table 12. EC50 values are reported for each Fc fusion antibody containing a modified CDR, along with its respective Bmax value normalized to the to the matched wild type VHH-1-Fc or VHH-2-Fc fusion antibody.

[2] = Production and purification of humanized VHH-Fc from cells; conditions: most humanized variants
From the text: as §1
Humanization within the framework regions of VHH and other antibodies is known to often have negative impacts of on protein properties such as destabilization of the VHH fold or loss of binding affinity. This is most common when humanized versions of antibodies are constructed by “CDR grafting”, where the individual CDRs are transferred directly to a fully human framework.

[3] = target: T2, HuT-78 cells that naturally express human CCR8 (Homo sapiens, UniProt P51685); experiment: Flow cytometry binding of yeast-display optimized VHH-Fc antibodies to HuT-78 cells; conditions: Table 13; for EC50: clones tested as VHH-Fc fusions (human IgG1 Fc), HuT-78 cells; for Normalized Bmax (%): normalized to VHH-1 or VHH-2 depending on clone family
T2 construct: HuT-78 cells that naturally express human CCR8 were used as target cells; endogenous in cells; host or cells: HuT-78
T2 sequence (P51685 whole entry, the tested form may be a part): as above
From the text: Top VHH sequences were chosen from the FACS sorted populations based on an analysis of improved binding performance relative to the parental sequences and evidence of sequence enrichment by NGS. Candidate VHH were then cloned as VHH-Fc fusions to the short hinge of the IgG1 Fc domain (SEQ ID NO: 34), expressed in HEK293 cells as described earlier and purified for binding evaluation. Bmax values are shown as normalized to VHH-1 or VHH-2 depending on the clone family. […] Mutations are referenced by position according to the IMGT definition.

[4] = system: MC38 mouse colon cancer cells; experiment: MC38 tumor growth inhibition study in human CCR8 transgenic mice; type: in vivo; conditions: 30 mg/kg IV 3 times per week, Day 16, p=0.0169
Experimental: Human CCR8 transgenic (hCCR8-tg) mice (#110096, Biocytogen, China) were inoculated with MC38 mouse colon cancer cells subcutaneously. After the average tumor size reached approximately 150 mm3, mice were randomized based on tumor size and treatment was initiated. Mice were treated IV 3 times per week with 30 mg/kg VHH-1-mFc (SEQ ID NO: 239) or an IgG2a Fc control (recombinant IgG2a Fc, #BE0097, BioXcell). Tumor volume was measured twice per week using a caliper, and the volume expressed in mm3 using the formula: V (mm3)=(a×b2)/2 where a and b were the long and short diameters of the tumor, respectively. The tumor size was then used for calculations of tumor growth inhibition (T/C) values (where T was the treatment group and C is the control group). The T/C value (in percent) is an indication of antitumor effectiveness; T and C were the mean volume of the treated and control groups, respectively, on a given day. […] To determine whether group treated with various test articles had statistically significant anti-tumor effects compared to the mouse IgG2a Fc control, the MC38 tumor volumes were analyzed by one-way ANOVA and multiple comparison test at day 16. […] In addition, the tumor growth inhibition (TGI) was also calculated during the study until Day 16. On Day 16, the TGIs for VHH-1-mFc were 50.3%, (p=0.0169).

hCCR8 [5] = target: T1, hCCR8; experiment: Flow cytometry binding of purified VHHs to HEK293 cells expressing hCCR8; conditions: monovalent VHH, FIG. 1
Experimental: Recombinant cells expressing hCCR8 were resuspended to a final concentration of 1.0×10^6 cells/ml in FACS buffer. Surface expression of hCCR8 on transiently transfected HEK293 cells was confirmed by flow cytometry of HEK293 cells stained with PE anti-hCCR8 (Clone 433H, BD Biosciences, #566897) antibody. Dilutions of purified VHHs were incubated with cells for 60 min. Individual samples were distributed into 96-well v-bottom plates and incubated for one hour at 4° C. Bound VHH were then detected with an anti-VHH specific antibody (Goat anti-alpaca VHH, Jackson ImmunoResearch, #128-605-232). […] Binding was determined in parallel on HEK293 cells stably expressing the closely related receptor hCCR7 (SEQ ID NO: 41), as control for binding specificity.

Molecule | binding to hCCR8 expressed on HEK293 cells (in words) (hCCR8 [1]) | EC50 [3] [nM] | Normalized Bmax (%) [3] [%] | other results
B1 | maintained their hCCR8 binding properties | – | – | –
B2 | – | – | – | stability / producibility after humanization [2]: could not be produced and purified from cells
B3 | maintained their hCCR8 binding properties | 5.46 | 88.6 | –
B4 | – | 0.24 | 100.0 | EC50 (hCCR8 [1]; Table 12, VHH-2 CDR alanine mutants as human Fc fusions, HEK293 hCCR8): 1.3 nM; % Bmax (hCCR8 [1]; Table 12, normalized to wild type VHH-2-Fc): 100%
B5 | – | – | – | fold smaller tumor volume than isotype control [4]: 1.8 fold; tumor growth inhibition (TGI) [4]: 50.3%
B6 | – | – | – | binding specificity hCCR8 vs human CCR7 (hCCR8 [5]): specific binding to hCCR8 overexpressed in HEK293 cells and not to human CCR7
B7 | maintained their hCCR8 binding properties | – | – | –
B8 | maintained their hCCR8 binding properties | 1.19 | 88.8 | –
B9 | – | – | – | stability / producibility after humanization [2]: could not be produced and purified from cells
